{
  "source": "paper PMC5766154",
  "key": {"[1]": {"target": "AdeR receiver domain with linker sequence (AdeR_RD, 1-137) (Acinetobacter baumannii ATCC19606)", "assay": "SEC"}, "[2]": {"target": "full-length AdeR (AdeR_FL), response regulator of Acinetobacter baumannii (Acinetobacter baumannii ATCC19606)", "assay": "SEC"}, "AdeR_FL R231A [3]": {"target": "T1, AdeR_FL R231A (Acinetobacter baumannii ATCC19606, UniProt E1A0Z5 1-247, R231A)", "T1 sequence": "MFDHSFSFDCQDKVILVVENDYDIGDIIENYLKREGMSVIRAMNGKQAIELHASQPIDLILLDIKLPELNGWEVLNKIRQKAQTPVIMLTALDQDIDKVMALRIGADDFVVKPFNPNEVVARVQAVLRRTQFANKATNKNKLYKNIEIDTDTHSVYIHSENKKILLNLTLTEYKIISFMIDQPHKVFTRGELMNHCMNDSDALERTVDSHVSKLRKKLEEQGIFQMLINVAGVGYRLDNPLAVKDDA", "assay": "EMSA"}, "AdeR_FL R231A [4]": {"target": "T1, AdeR_FL R231A", "assay": "ITC"}, "AdeR_DBD": {"target": "T2, AdeR_DBD (Acinetobacter baumannii ATCC19606, UniProt E1A0Z5 138-247)", "T2 sequence": "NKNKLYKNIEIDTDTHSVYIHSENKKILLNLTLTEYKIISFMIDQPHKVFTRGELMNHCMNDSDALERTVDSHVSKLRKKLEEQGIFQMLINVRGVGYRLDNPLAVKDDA", "assay": "ITC"}, "AdeR_FL": {"target": "T3, AdeR_FL (Acinetobacter baumannii ATCC19606, UniProt E1A0Z5 1-247)", "T3 sequence": "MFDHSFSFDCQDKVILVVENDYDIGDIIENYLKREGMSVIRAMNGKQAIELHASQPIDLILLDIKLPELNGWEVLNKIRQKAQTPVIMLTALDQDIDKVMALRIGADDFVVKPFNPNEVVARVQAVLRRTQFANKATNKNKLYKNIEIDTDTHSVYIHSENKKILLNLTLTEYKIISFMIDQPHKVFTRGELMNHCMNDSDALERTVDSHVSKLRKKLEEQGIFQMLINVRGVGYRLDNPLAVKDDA", "assay": "ITC"}, "AdeR_FL R122A": {"target": "T4, AdeR_FL R122A (Acinetobacter baumannii ATCC19606, UniProt E1A0Z5 1-247, R122A)", "T4 sequence": "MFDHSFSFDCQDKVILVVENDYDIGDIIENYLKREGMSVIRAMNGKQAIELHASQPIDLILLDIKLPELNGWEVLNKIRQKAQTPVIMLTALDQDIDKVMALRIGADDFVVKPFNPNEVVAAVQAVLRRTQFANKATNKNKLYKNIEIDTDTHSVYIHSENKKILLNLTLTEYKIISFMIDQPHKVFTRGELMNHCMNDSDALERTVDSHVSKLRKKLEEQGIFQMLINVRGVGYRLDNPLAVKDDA", "assay": "ITC"}, "AdeR_FL D63E": {"target": "T5, AdeR_FL D63E (Acinetobacter baumannii ATCC19606, UniProt E1A0Z5 1-247, D63E)", "T5 sequence": "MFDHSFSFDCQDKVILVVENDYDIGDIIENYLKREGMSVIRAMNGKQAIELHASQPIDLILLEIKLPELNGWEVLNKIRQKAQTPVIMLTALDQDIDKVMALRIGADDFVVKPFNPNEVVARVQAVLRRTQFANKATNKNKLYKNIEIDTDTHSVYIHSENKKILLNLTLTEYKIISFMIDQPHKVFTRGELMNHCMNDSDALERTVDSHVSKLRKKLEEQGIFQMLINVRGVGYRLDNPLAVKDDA", "assay": "ITC"}, "AdeR_FL R205A/R215A": {"target": "T6, AdeR_FL R205A/R215A (Acinetobacter baumannii ATCC19606, UniProt E1A0Z5 1-247, R205A;R215A)", "T6 sequence": "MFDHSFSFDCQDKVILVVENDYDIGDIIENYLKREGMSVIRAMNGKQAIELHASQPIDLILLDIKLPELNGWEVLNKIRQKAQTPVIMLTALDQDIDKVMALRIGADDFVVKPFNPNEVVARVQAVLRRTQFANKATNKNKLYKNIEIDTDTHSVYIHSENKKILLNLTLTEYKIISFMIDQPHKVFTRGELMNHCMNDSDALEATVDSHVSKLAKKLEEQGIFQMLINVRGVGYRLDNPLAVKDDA", "assay": "ITC"}},
  "data": [
    {"molecule": "AdeR receiver domain with linker sequence (AdeR_RD, 1-137) (domain or fragment)", "values": [
      {"measurement": "stoichiometry N", "setting": "[1]", "result": 2}
    ]},
    {"molecule": "full-length AdeR (AdeR_FL), response regulator of Acinetobacter baumannii (natural protein)", "values": [
      {"measurement": "stoichiometry N", "setting": "[2]", "result": 2}
    ]},
    {"molecule": "biotin 25 bp intercistronic DNA (dsDNA) DNA 1: TAAAGTGTGGAGTAAGTGTGGAGAA DNA 2: TTCTCCACACTTACTCCACACTTTA", "values": [
      {"measurement": "binding result", "setting": "AdeR_FL R231A [3]", "result": "no binding"}
    ]},
    {"molecule": "25 bp intercistronic DNA (dsDNA) DNA 1: TAAAGTGTGGAGTAAGTGTGGAGAA DNA 2: TTCTCCACACTTACTCCACACTTTA", "values": [
      {"measurement": "binding result", "setting": "AdeR_FL R231A [4]", "result": "no binding"},
      {"measurement": "Kd", "setting": "AdeR_DBD", "result": 2.2, "unit": "µM"},
      {"measurement": "Kd", "setting": "AdeR_FL", "result": 0.02, "unit": "µM"},
      {"measurement": "Kd", "setting": "AdeR_FL R122A", "result": 1, "unit": "µM"},
      {"measurement": "binding result", "setting": "AdeR_FL D63E", "result": "binds"},
      {"measurement": "binding result", "setting": "AdeR_FL R205A/R215A", "result": "no binding"}
    ]}
  ]
}
